Measured values as given in the NTF2 design screens of Basanta et al. (2020).

Experiment: protease stability score; higher = more stable; yeast display proteolysis, trypsin and chymotrypsin;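 also: relative to predicted unfolded state with 0 unfolded-like and 1 meaning tenfold more protease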

Sequence | protease stability score
SETHMESKIASEIFSDIMHTGDFRTLLRYADPHVRYIVGDKTMHGREIMVEEFKELWKTWGVDRVEVRIEDIKVIGEKVEIHGTLIIGEKTLRVVVISTKVNGQWIQDTFNVDEK | 0.838
DEINEDLERQARLFYHLWLTGDEEILEKLVDPHVRIILVFNGVPKQDHGREWLMKLFEEIRVEHFEIKTFEIQGEKAIMDTHEIIHVNGKRTRLRVHLWLTMVNGRIKTIEIRFV | 2.13
SEEEKHVIKMAEILLKSVLTGDWDKIKKMLDPNVKFHFHAENRHEEDHGMERVMDWMIKVRERFDVLEIEVTNSDVYGDKAVVDGRLINIIGDKRIETRVIIIIVVVDGRIHSIYFVIK | 2.54
DEYERIWRDLVKLILHAHKTGDEDHLKRLMDPNAKIHVGEFEMIGRTDEELWKRLLGIERFHIHRIDIRTISIFDGRLHIEVDSDGQINGKRVEHHIEITLVIIDGKLHSVSHTLK | 1.1
SEKDDHALRVLEEYLHLFLTGNEEVMERLVDPHVRFIYGDKEFHGRELMIRWIREEREQYDHIHWEIRHFESQGDKAHSEVELRIRQGDKRIHVDMHIHIEVVNGRWKRIEVRER | 1.78
DEHEHFMEYAMKRMLHSWLTGDEHDWHELADPNVKLHIGEYNFIGREEYYRHLHRHLHEAGFKHIKIDHIHVEIQGEKLIFRMDTTIHFNGRKLRVEVIVILFKVNGRWSLHTDEVHIE | 0.931
DEADRFREFAKRLYLEKSNTGDWEELIRLFDPHARYEYGDKEMHGRDTIDFLREMLGIDRIQLRHVNDHSVDLQGDKIHIDGTVVEEWNGQEYRSRVILILRKVDGRWYLETMHVD | 0.409
TEYEHLMEYIVRRFLEVLLTGDERELDRLADPHVIHHMKQGDKSWSLHGMELLSEVSRHWRDEIRIKRVEIHDLKNIGNWSDMYSTVHLRYNGREEVVEVRLHIDVYNGRVREVEIRIH | 1.12
HEEEELLERVIRLMVENIITGNEDQLNNLVDPHAKIDIDGVILHGRDWVRDLHERVDHMEVRITDWRMIGDKVQTDSRLTNRFNGKEYRRDVRFHAHKINGRWINQTIEIR | 0.722
SDEEKFMHEMYELILKALHTGDEEFLEHFADPNTRLHINGRERHGRDEMKEFFKKFLDHWRIERFHVRSVEIFDGRVTSDTEIRGNIDGVRSEHRTDINIVIVNGRLKEINIHIE | 0.537
NEDEEIWRKAHEFMIHAMKTGDEDVEKSLFDPHTRFEQGDKELHGREMIEHLLRLLRERFPNVQIRRMEIQHWDHFNGVLIEFGELRVDVNGRTVSLRIIIYAEKINGQWHVKRVEFD | 1.52
DDEIRFLFKIAHLWMRSHSTGDERVLEHLMDPHVRIDFNGVELHGWKDMLTEWKEIRIIIEHVEIDHYDVQGDKMELNGRISGTFHFNGRTRTTDFRSELRFTVINGKLHSVEIHYR | 1.41
DETKEKVRIALELLETLHRTGDEDKFLELADPHYQLHINGQTVIGRETIYELLVRFLHHLGATSEVRIRSVDWQGDKIIVDMRLHFRVGDKSFEIQVHIYILKVNGKWLIESIEIR | 1.68
SEETEFAKEMLDIIFNLLRTGDWEYLVRLMDPHVRVIYGDKVTHGRDIIQYMHEHIRIRHLEFRHFDVIGDKINVDGRMEGEVNGRHDKTEMHIILLKINGRWSLHSIEIR | 1.39
DEEKEDFHHAVELVLRVIKTGDEHTARELMDPRVRIDIDGQDFHGWQHIVHFVKHWRIERYSLKYVEYIDGRIHNTVLLDITVDGQRRNLEVYIIFLKYNGRWILTEVILR | 1.84
SDKDKEFEKLFREYLRDLLTGDEESLRRLIDPNARFSYEVGDKTEERHGREEAVRWIIEIRIHSFRLRNSTYIGDKMHLEVESDGQYDGKRRFTEVHIEIILINGRVHEVHVWYV | 1.01
TEDEEFAFEIIRLFHEALLTGDEETLHHLVDPNARMQIGEFTTHGRSMVKFFNKRFDHWEMRVEFRRIHYIGDKVFVDTRIRILIEYNGRFIETSVEQRIVTRKIDGKWQITRLEIV | 1.05
DDRERESEEALRLFIETLETGDEHWLKRLMDPNARLHQGEKTIHGMDIFSTWVVEARLKHYHLERVHIQGDKMDVESHVDGHVNGQRLKVQLIFHSLKIDGRWLVKHIIVH | 1.4
TEDEKFVEEFTRLIMHSFRTGDWELFEHLLDPDTRIEQGDWERIGMEEAIRLLHKVVHEMRVTHTDLKSITVIDGRIEIDARVHLEFNGQSVTYTQLILSIKIDGRWVLKSVHFH | 1.87
DELDHDIERNLRLWLEALYTGDFEFLLRLVDPNVRMHINGVNDHGWKFAEFLIRRADHSEMEIRIRHVHEVNGVLRMDGEVKFDIRQGDKSREKHIEVHMVLMKVNGQWFVKSFEFK | 1.47
SESEEASREAIHLMIESWRTGNEHILDRLMDPNVRNRIDGRDLIGRENFLEVLRHLEEKMGIDHIEFDTERVRWVGDKAESDTRFETVYNGKNVEISTKVHWEKVNGRWHIREIRFH | 1.17
TEEERSTRIAWEIWEMVHKTGDERLIRRFADPNVRIQIGEYNHHGREELENHTKRIDHLHVQDSDVKRVHHFDGQVHIDVHEIIHLEFDGVREDIKRRAHFVVVKYDGRWYLHHVKFH | 0.937
SEDERDIREAFKRWVHNVETGDFESLLKLFDPNVKTTIDGREYHGRDFLVRRLSEMRVHHIEIEHFDIQGDKVNVRGRMDGQIGDKRQDVHFVIHMVKINGRWLLTELTEK | 2.23
DESEESIRKVVKLLERAHRTGDEHEMKHLLDPNAKLIINGVELHGMELFEKLFKFERHHWRLHSMHVRHVDTQGDKANSDGEEDREFDGRREEVKTIIVMVKIDGRWHVKHIIFL | 1.08
SEIEELMKISLREFLHSSETGDEEHHNRYADPNVRLEIGDKTLIGWEALEHLLEHWKREAGIEKIELHIHVTRIHVQGEKLEFDGHLEVRQGDKVNHVKVTLVITKIDGKWVLHSVVFI | 0.367

Sequence | protease stability score
DEHDKHVHEMAERIMRSWHTGDEDTFHKMADPNVRVEIFVNGKNIIRHGREVWKHELERYDHVELRIKSMDAQGDFVHIDGELTINIGDKKHSTTLRIELEFINGRLKRISVHIH | 1.05
DEEHEHLKELARLILKWWYTGDEQHMLELADPNVRSHVNGVHLVGREEMMKVWVEVLEFLGADHVEDKRSSIQGDKTILHTSHHVNGKEIEVDVDIRIVDGKDHTLEFRIK | 1.44
SEEEEAARHVLEEWLRSIRTGDEEFTERLLDPEARFHVNGVEIIGREHIIRRLREIRIHDIKMDVREIRIVDGRISIDVTYRIDGEVNGVKVDTSHEVRLVFVKINGRWLNRKEEVR | 1.66
DETREEVYEMAVRILENEITGDWKKLYDLVDPDTRLDINGRHVIGREEMIKLFEWWLKHIRIKEIRLSHVEAVNGKADLKSNVHGTIDGVEHDVRRTIHIDIVDGRVKRIEVRTR | 1.29
SEEEQHFRELLHHILENMYTGDWRSLEKNADPHARLFYYQGDKYELYIGMHEWRRLLHHMHERFRNARFQIDEWHVQGDYFKIVESLDYGDKHIDIRVHIQYVNGRLKEMHIHIH | 1.24
TKEEDLMELALRIIERVNETGDEQELHDRLDPHTQIEIGDKNEHGWEHIVHVMRHIRIEQIRFRDRRVQGDKVHVFVESEIRVGEKQLHVKVDIYVWKFDGRWIMTRMRVE | 1.33
RDVEHLLEKWMEDHMEALHTGDEDRIHELLDPHVRVHIDGVNLHGRERAVEFMVRSLRELGIKHIKLDVEDVEVQGEKVIIDLRVNLDYDGREHRDKEIIILLKIDGKWVIEEVRRG | 1.07
SREEEDAKLALDLLIEALKTGDEHEIKELLDPTTRMEVGDKELVGRENISKHVSDMVHRIDHIEVRLHDMTIINGVVHLDTRLILHFNGRTHTQETRVIVWKFNGRWIITHIHVK | 1.28
SEDDHERHRFLELIKHNHKTGNEENIYRMADPDVRLHIGDKEFHGMEHHMEFLREWLDRLGIDKVEFQVERIHVQGDKINVDVNLNVNGKHYRVILYLIKIDGRWRIKLLEIR | 0.884
SEDIKEIKDILRTMYEAFITGDWRTVAKLFDPHVRIEYDGVRLHGREHVEHFLRHLRERVEWHHIEDTQEQGDYIELHGRTILNIEIGDKRDRRDSHFILMMVKVDGRWLIHRIIIR | 2.21
DEEEEYLHKRAREFFRSFLTGDWHFLMHLLDPNVRWEVIIGNKRIERHGREELFKDLLRWLEEIRIKRMHVEEIHVFDGQLFMRVSAHGEFNGKERDTHEELVVVVVNGRFKSARIHVH | 1.65
DEDEELDRKFTTLFLHLWETGDEDTMRDLLDPDVRLLIIYNGRHIEVHGREHMSKFLKDFWRKFKNLRIHVKHVEAIDGVVHISGETRFDGRSTLVQIDIDVVDGRIKSERYIFR | 1.76
DENEDRIRHLLELHFHALETGDEKKTHDLFDPNTRVEVGDKTLHGRELVSKHVAEDLIKIKGLTVRIRDWNIVGDKVVVDSRVEFNGVRVETILVALKVDGRWLVKSIHIH | 0.42
SEKEEQARKLAKDWSHDTDTGDFKSIFDLIDPDVRVEIGDKRFVGWELVVKWHEHHRHEFGVTQIRHRVDDMELQGEKVIVRGTLIYDGVDFKVHLILEVINGRIRRVEIRIE | 1.04
SEEEEIVREALKIWFHAMITGDERTLNEMVDPNVRVDVDGKELIGRKHMVELLRRFKNITIRHWHIKHLDIQGDKIEIDTRLDVEVNGRQEILTEKFHARKVDGRWFLSTREER | 2.19
DEEEEEWERIARRLVKAWLTGDEDLLSFLADPHVRLHVGDKHNHGREHVERHWKEYLDRVKNVRIHVHHVEIQGEKIIIHVEVEINGRTFNMRVIIIVINGRIKEIVIHIH | 0.635
REEEKMFTMILEIIKHSLVTGDEDLTRNLVDPNMRLEINGQEVHGREEILRVLLELRVKEMHIDDVKFQGDKAEIDGTLDIEWNGQEDHLKVEIIFRKINGRWHIESIRLE | 1.48
DEEREKSELAIKIMKHVWETGDETLKSELFDPNARIHIDGKEIVGREEIEDQLRHIRMHITMFDINSTKFVDGRLEVYLNRRVRLFFDGREIEEEQHIHVVLLKINGRWQLQELEVT | 1.36
DEEKEVMKELYEMLIHDLLTGNEESLHKLLDPHVKVDIDGKILHGMEATVKWWKEAGADHTDIHSVERQGEKIIINMILRVGDKTLRLHVHIIVVNGRVESIRVELRHE | 1.01
SEEEHEMERHEREFRDVAETGDERDWTNLADPNVRFEDEDEVLVGREDWHEYVRRVDHFHVRRLDYEHFSVIDGRIDIEGNMDIELNFDGQSHRMRVHVRIITTKINGVWLFESVHIQ | 1.75
DEDEELSERVTREWLHAILTGDEDWLRRYVDPHVRVHINVDGKDRTVHGMDFLIEHLRRVPNVRFIIKHMEVETQGEKVIIRVNVRIRVGDKEHETEIILIVLKVDGRWIATSIFIHIR | 0.231
SEEEKILKEIAHLLIRSLITGDWKILRDLMDPHTKIHILQGDKVHNFHGWKAMTETLKQKLDRIDHVNFELRHMEVFDGRVHIEGVLHLNFDGQERFTEVRIIVVVIDGKLKEFELRIH | 2.16
DEHEERLEHWAEVIIRSWITGDESLFRHLFDPHVRTEVNGVERHGRDEAVKMERLIREHLGVKHEEIKDYHVQGDKIHVDSRVDVNGVKINTRIHVLVVNGRIKEVRFEFD | 0.841
DEDREHVLKVTRLIWRAWMTGDFERISHLIDPNAKIDINGVDLHGREKLRHHLERVDYMHLESEHERRIDIIGDFVRIEFRFTVILIVNGQEVRDTTHVEIRARIVNGRLTEVYVHEH | 1.55
REIEEDVEKALRLWEKTMFTGDEDRFMELADPHTRVTFNGREVIGMEIWKTLVEELGIDVIKDTRIHDVKVQGNKVHVDSHRHVHFNGKTVEIRTRLIATKFDGRWHIESIRFQ | 0.803
